Laboratory results: patent US11673916B2, “Neuroprotective peptides and methods of their use” (University of Pittsburgh—Of the Commonwealth System of …, priority 2020, dated 2023)

Biological target: T1, Kv2.1-VAPA association (Rattus norvegicus, UniProt P15387+Q9Z270)
T1 construct: endogenous in cells; host or cells: primary rat cortical neurons (untransfected, fixed and immunolabelled)
T1 sequence (P15387 1-857): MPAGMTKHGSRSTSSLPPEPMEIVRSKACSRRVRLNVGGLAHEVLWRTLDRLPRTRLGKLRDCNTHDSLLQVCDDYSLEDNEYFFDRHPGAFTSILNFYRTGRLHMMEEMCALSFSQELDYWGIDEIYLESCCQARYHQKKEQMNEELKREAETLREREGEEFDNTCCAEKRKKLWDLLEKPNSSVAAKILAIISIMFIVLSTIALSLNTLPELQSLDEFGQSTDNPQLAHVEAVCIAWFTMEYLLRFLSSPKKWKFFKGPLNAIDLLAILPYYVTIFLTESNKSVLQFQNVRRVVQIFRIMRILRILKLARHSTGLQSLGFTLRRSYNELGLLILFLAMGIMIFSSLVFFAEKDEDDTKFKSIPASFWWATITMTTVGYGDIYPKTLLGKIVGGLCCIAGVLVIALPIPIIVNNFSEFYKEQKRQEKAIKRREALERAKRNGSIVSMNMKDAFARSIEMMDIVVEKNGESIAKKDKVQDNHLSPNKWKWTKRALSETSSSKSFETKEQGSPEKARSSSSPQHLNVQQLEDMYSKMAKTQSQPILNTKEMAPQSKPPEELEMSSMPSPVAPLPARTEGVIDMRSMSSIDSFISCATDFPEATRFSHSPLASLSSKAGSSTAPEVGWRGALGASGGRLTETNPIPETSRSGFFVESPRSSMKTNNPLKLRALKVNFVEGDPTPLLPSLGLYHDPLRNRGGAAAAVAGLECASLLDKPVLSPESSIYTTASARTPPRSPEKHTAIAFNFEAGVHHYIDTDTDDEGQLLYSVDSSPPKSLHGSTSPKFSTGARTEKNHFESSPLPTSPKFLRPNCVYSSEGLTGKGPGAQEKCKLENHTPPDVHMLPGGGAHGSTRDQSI
T1 sequence (Q9Z270 2-249 limits assumed): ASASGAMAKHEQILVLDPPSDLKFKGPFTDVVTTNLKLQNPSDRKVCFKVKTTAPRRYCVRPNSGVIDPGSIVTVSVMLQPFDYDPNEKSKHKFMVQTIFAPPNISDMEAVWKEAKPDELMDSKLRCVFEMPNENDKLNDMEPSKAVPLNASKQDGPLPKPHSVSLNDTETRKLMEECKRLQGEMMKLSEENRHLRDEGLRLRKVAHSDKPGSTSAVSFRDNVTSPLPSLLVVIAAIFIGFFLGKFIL
Test: Proximity ligation assay (PLA) of Kv2.1-VAPA association in cortical neurons
Type: cell-based
Settings: 10 μM peptide, 2-hour treatment, means+/-SEM (FIG. 3C)
Description: Duolink proximity ligation assay (PLA) technology (Sigma-Aldrich, St. Louis, Mo.) was utilized to assess in situ protein-protein interaction between Kv2.1 and vesicle-associated […] protein (VAMP)-associated protein A (VAPA). Primary cortical neurons on glass coverslips were treated in 24-well plates with vehicle (dH2O), TAT-Sc-2 (10 μM), or TAT-DP-2 (10 μM) for 2 hours at 37° C./5% CO2. Neurons were then rinsed with 2 mL ice-cold sterile PBS and then transferred to 1 mL 4% paraformaldehyde (PFA) in PBS for 20 minutes to fix. Coverslips were transferred to 1 mL 0.1 M glycine (in PBS) to quench fixation and rinsed three times in 1 mL PBS. […]
PLA puncta were imaged on a Nikon A1+ confocal microscope (Nikon, Tokyo, Japan) with a 60× objective. […] PLA puncta signals were then obtained by capturing 25 optical sections (0.5 μm) that constrained the entire Z-width of PLA-TRITC fluorescence as MAX-IP files. […] NIS-Elements AR object count feature was then utilized to analyze the quantity of PLA puncta per cell. […] As distinct local PLA puncta-TRITC auto-fluorescence (markedly different in appearance from PLA puncta) was noted, local background subtraction using a small ROI within this region was performed in a protocol similar to that described earlier (Glynn, et al., Nat Protoc. 1: 1287-1296, 2006). […]

Row | Sequence | PLA puncta per square micron of neuronal soma
1 | YGRKKRRQRRRDFSSIST [TAT-Sc-2, TAT-linked scramble control peptide] | 0.10+/−0.06 #PLA puncta/sq. micron of cell soma
2 | YGRKKRRQRRRSIDSFTS [TAT-DP-2, TAT-linked declustering peptide 2] | 0.06+/−0.01 #PLA puncta/sq. micron of cell soma
